Results on two proteins are retold here after paper PMC4051777, “Characterization of an Alkali- and Halide-Resistant Laccase Expressed in E. coli: CotA from Bacillus clausii” (PLoS ONE, 2014).

Substrate in data set [1]: COc1cccc(OC)c1O
The data set is described as follows: purified protein. In kind it is biochemical, Shouchella clausii. The settings on record: pH 7 (implied by context), O2 as co-substrate, DMP 0-12.5 mM, substrate inhibition at high DMP.

Substrate in data set [2]: COc1cccc(OC)c1O
In words: purified protein. The settings on record: pH 7, O2 as co-substrate, DMP 0-12.5 mM, substrate inhibition at high DMP. In kind it is biochemical, Bacillus subtilis.

As a reminder, the Km is the substrate concentration at which the rate is half of its maximum.

B1: cotA from B. clausii (Shouchella clausii KSM-K16) (protein)
chain: MELEKFVDPMPIMKTAIPKKTSKDGDYYEIEMKEFSQKLHRDLNPTRLWGYDGQFPGPTIEVMRGKPARIKWMNNLPDTHFLPIDRSIHHVAHEPEVRTVVHLHGSETTPASDGYPEAWFTKDFAEVGSFFEQETYEYPNDQRAATLWYHDHAMGITRLNVYAGLSGLYIIRDPREEQLNLPKGEFDIPLLIQDRSFNDDGSLFYPAQPANPAPNLPNPSVLPFFVGDTILVNGKVWPYLQVEPRKYRFRILNGSNSRSYQLALDSEAPFYQIASDGGLLRRTVSLQAFDIRPAERIEAIIDFSKFEGQTITLKNNASTDATADVMQFQVVLPLSGEDTSIIPQNLSYIPSLQQNDVKRIRNLKISGTTDEYGRPLLLLNNKLWSDPVEEKPCLGTTEIWSFVNVTNVPHPMHIHLVQFQLLDHRAFNVELYNENGQIELVGPTIPPKINERGWKDTITAPAGQITRVIARFAPFSGYYVWHCHILEHEDYDMMRPFVVIDPKTEKERR
notes: full length, codon-optimized gene in pETM13 (p133), E. coli BL21(DE3)
For the protein B1, in “purified protein [1]”, the Km stood at 1020 µM.

B2: cotA from B. subtilis (Bacillus subtilis subsp. subtilis str. 168) (protein)
chain: MTLEKFVDALPIPDTLKPVQQSKEKTYYEVTMEECTHQLHRDLPPTRLWGYNGLFPGPTIEVKRNENVYVKWMNNLPSTHFLPIDHTIHHSDSQHEEPEVKTVVHLHGGVTPDDSDGYPEAWFSKDFEQTGPYFKREVYHYPNQQRGAILWYHDHAMALTRLNVYAGLVGAYIIHDPKEKRLKLPSDEYDVPLLITDRTINEDGSLFYPSAPENPSPSLPNPSIVPAFCGETILVNGKVWPYLEVEPRKYRFRVINASNTRTYNLSLDNGGDFIQIGSDGGLLPRSVKLNSFSLAPAERYDIIIDFTAYEGESIILANSAGCGGDVNPETDANIMQFRVTKPLAQKDESRKPKYLASYPSVQHERIQNIRTLKLAGTQDEYGRPVLLLNNKRWHDPVTETPKVGTTEIWSIINPTRGTHPIHLHLVSFRVLDRRPFDIARYQESGELSYTGPAVPPPPSEKGWKDTIQAHAGEVLRIAATFGPYSGRYVWHCHILEHEDYDMMRPMDITDPHK
notes: full length, 1542-bp PCR product from genomic DNA in pETM13 (p130), E. coli BL21(DE3); no fusions or tailing amino acids
Regarding B2, the Km in the data set “purified protein [2]” was found to be 340 µM.
